Drawing on patent US20260217796A1 (NANJING GENSCRIPT BIOTECH, published 2026), this text covers EC50 for four molecules.

The target in the experiment is T1, recombinant AAV2 virus-like particles (VLPs) of capsid proteins VP1, VP2 and VP3 (AAV2, UniProt P03135 1-735; P03135 139-735; P03135 203-735).
T1 construct: also called AAV2 VLP; antigen
Put plainly: indirect ELISA, plate coated with 1 ug/mL AAV2 VLP, 3-fold antibody dilutions from 1 ug/mL.

T1 sequence (P03135 whole entry, chain 1 of 3): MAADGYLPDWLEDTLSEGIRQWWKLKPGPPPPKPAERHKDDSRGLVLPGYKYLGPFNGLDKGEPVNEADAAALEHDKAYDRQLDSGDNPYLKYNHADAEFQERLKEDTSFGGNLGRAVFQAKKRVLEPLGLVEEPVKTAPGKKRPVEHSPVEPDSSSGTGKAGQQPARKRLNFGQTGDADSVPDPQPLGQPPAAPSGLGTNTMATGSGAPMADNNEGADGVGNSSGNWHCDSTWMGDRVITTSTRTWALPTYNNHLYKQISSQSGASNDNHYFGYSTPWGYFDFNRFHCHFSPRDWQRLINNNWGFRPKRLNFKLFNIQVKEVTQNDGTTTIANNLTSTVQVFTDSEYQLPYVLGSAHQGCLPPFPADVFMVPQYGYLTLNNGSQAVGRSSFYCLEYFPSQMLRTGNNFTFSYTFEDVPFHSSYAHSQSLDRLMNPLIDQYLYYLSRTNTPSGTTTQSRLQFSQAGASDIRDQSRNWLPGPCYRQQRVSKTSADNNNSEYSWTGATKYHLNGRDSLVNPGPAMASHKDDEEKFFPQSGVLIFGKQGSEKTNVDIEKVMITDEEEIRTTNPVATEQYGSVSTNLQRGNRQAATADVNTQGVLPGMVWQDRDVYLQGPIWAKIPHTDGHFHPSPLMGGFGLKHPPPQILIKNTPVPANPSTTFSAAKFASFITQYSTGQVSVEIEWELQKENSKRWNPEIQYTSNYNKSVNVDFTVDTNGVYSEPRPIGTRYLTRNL
T1 sequence (P03135 139-735, tags left off, chain 2 of 3): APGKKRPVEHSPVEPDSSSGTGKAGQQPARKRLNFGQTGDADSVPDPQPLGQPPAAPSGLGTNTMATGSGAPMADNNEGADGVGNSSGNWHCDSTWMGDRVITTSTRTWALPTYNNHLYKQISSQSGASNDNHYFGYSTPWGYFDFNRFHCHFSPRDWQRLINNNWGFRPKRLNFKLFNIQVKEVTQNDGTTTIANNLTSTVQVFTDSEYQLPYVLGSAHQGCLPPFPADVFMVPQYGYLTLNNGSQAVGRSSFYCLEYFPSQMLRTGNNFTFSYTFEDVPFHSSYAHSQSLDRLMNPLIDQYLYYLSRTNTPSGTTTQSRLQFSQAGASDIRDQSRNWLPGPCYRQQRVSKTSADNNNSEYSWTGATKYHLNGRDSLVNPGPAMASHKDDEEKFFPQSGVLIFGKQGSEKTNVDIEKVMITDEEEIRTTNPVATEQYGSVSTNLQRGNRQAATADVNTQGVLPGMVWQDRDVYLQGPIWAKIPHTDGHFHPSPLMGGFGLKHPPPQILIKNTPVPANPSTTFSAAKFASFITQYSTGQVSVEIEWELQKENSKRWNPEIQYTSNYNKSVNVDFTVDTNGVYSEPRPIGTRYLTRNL
T1 sequence (P03135 203-735 limits assumed, chain 3 of 3): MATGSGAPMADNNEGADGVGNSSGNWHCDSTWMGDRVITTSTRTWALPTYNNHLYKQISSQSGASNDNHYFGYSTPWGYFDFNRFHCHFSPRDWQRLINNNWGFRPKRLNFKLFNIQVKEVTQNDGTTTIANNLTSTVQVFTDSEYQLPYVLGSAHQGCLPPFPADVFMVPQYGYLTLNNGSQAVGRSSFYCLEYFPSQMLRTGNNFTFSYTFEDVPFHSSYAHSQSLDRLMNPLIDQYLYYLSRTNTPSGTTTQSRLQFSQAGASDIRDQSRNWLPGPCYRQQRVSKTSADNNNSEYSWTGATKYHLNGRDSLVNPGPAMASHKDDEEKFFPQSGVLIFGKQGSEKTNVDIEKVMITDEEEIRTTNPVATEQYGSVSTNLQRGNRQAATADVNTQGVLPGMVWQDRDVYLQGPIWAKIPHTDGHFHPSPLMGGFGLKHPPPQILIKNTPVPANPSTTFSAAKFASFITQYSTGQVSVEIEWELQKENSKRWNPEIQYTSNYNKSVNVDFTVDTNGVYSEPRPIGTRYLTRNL

B1: 15G4-4 (antibody, V domains shown)
VH: QSVEESGGRLVTPGTPLTLTCTVSGFSLNSYTVNWVRQAPGKGLEWIGFISGGSGITNYATWAKGRFTISKTSTTVDLKLPSPTTEDTATYFCARGRYPGYGGDDYEDYYFNLWGQGTLVTVSS
VL: DVVMTQTQASVSAAVGGTVTIKCQASESIGSYLAWYQQKPGQPPRLLIYQASTLASGVSSRFKGSGSGTQFTLTISDLECDDAATYYCQGEFSCDGAHCNAFGGGTEVVVK
notes: Expressed recombinantly in ExpiCHO-S cells, purified on protein A as IgG and detected with anti-rabbit IgG (Fc-specific); also called anti-AAV2 rabbit monoclonal antibody 15G4-4; combination B
As for B1, the EC50 was 1.77 ng/mL.

B2: 19E10-3 (antibody, V domains shown)
VH: QSLEESGGDLVKPGSSLTLTCTASRFSFSGDYDMCWVRQAPGKGLEWIACIGAGDAITYYTNWARGRFTITYTSSTTMTLQLTSLTVADTAAYFCAAGADFAFKLWGPGTLVTVSS
VL: DIVMTQTPASVEAAVGGTVTIKCQASQSIMSLLAWYQQKPGQPPKLLIYEASKLASGVPSRFSGSGSGTQFTLTISDLECADAATYYCQGYVESSGRHYRFWAFGGGTEVVVK
notes: Expressed recombinantly in ExpiCHO-S cells, purified on protein A as IgG and detected with anti-rabbit IgG (Fc-specific); also called anti-AAV2 rabbit monoclonal antibody 19E10-3; combination C
As to B2, the EC50 came to 3.94 ng/mL.

B3: 8H8-1 (antibody, V domains shown)
VH: QSLVESGGGLVQPEGSLTLTCTASGFSFSNVYYMCWVRQAPGKGPDWIACIYINADSTYYPSWATGRFTISKTSSTTVTLQMTSLTAADTATYFCARVAAYYDVYFNLWGPGTVVTVSS
VL: AVVMTQTASPVSAAVGGTVTINCQASQSISSSYLSWYQQKPGQPPKLLIYYASILTSGVPSRFKGSGDGTEYSLTISGVQCDDAATYYCLYGRYSGASIDTVFGGGTEVVVK
notes: Expressed recombinantly in ExpiCHO-S cells, purified on protein A as IgG and detected with anti-rabbit IgG (Fc-specific); also called anti-AAV2 rabbit monoclonal antibody 8H8-1; combination A
Regarding B3, the EC50 amounted to 1.46 ng/mL.

B4: 33G5-3 (antibody, V domains shown)
VH: QSVEESGGRLVTPGTPLTLTCTVSGIDLSSYAMSWVRQAPGKGLEWIGTINSDNYRYFGSWAKGRFTISKTSTTVDLKITSPTTEDTATYFCARQRGTSSGNAMDLWGPGTLVTVSS
VL: DVVMTQTPASVSAALGGTVTIKCQASQSIGSYLNWYQQKPGQPPKLLIYAASTLAYGVSSRFRGSGSGTEFTLTISDLECADAATYYCQTYYISDSSSHVFGGGTEVVVK
notes: Expressed recombinantly in ExpiCHO-S cells, purified on protein A as IgG and detected with anti-rabbit IgG (Fc-specific); also called anti-AAV2 rabbit monoclonal antibody 33G5-3; Biotin-33G5-3
With B4, the EC50 turned out to be 1.62 ng/mL.
